B1: chimpanzee/human anti-B5 MAb 8AH8AL (antibody, V domains shown)
VH: EVQLLESGGGLIKPGGSLRLSCAASGFIFRDYNINWVRQAPGKGLEWLGFIRTRASGRSTEYSASVKGRFTISRDDSKNIAYLHINSLKMEDTAVYYCAKKGDSYYYMDFWGKGTAVTVS
VL: ELALTQPASVSGSPGQSITISCTGGRSDLGDSNFVSWYQQYPGKAPKLLIYQVNKRPSGVPDRFSASKSANTASLTISGLQTEDEADYFCSSYTTTSTYVFGIGTKVVVLG
notes: also called anti-B5 8AH8AL; Anti-B5 8AH8AL
B2: chimpanzee/human anti-B5 MAb 8AH7AL (antibody, V domains shown)
VH: EVQLLESGGGLIKPGGSLRLSCAASGFIFRDYNINWVRQAPGKGLEWLGFIRTRASGRSTEYSASVKGRFTISRDDSKNIAYLHINSLKMEDTAVYYCAKKGDSYYYMDFWGKGTAVTVS
VL: ELALTQPPSVSGSPGQSITISCTGTSSDVGGHNGVSWYQQYPGKAPKVMIYEVNKRPSGVSNRLSGSKSGNTASLTISGLQAEDEGDYYCSSYRNGGSVVFGGGTKLTVLG
notes: also called anti-B5 8AH7AL

Assays:
BSA [1] = target: T1, BSA (UniProt P02769 25-607); experiment: ELISA, wells coated with the unrelated protein, IgG titrated
T1 construct: Unrelated control protein

BSA [2] = target: T1, BSA; experiment: ELISA, protein coated on wells

T1 sequence (P02769 25-607 limits assumed): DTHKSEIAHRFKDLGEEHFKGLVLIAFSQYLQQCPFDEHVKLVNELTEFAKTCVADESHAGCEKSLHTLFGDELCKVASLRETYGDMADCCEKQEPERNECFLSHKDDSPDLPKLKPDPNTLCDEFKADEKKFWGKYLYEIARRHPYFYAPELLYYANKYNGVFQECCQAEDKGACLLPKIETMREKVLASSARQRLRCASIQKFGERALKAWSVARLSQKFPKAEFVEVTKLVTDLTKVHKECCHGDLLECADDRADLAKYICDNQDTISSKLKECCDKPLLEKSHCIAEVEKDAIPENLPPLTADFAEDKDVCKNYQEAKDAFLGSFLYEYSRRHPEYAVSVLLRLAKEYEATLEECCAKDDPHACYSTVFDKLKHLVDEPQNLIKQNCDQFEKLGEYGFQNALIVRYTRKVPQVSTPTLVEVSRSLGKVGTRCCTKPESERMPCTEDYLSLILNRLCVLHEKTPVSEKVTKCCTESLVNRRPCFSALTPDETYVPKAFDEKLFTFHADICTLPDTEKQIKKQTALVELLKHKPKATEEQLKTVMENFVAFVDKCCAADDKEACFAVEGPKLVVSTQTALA

| Binder | binding result (BSA [1]) | binding result (BSA [2]) |
| --- | --- | --- |
| B1 | no binding (tested: 10^4 ng/ml) | – |
| B2 | – | no binding |

From patent US20090155250A1 (US Dept. of Health and Human Services, published 2009)
